Assays:
[1] = system: Nc1nc2c(ncn2[C@@H]2O[C@H](CO)[C@H]3OP(=O)(O)O[C@H]32)c(=O)[nH]1; assay: purified protein; conditions: 50 mM Tris-HCl pH 7.5, 2 mM MnCl2, 0.1 mg/mL BSA, 37 °C, excess alkaline phosphatase
Excerpt: (§1) coupled alkaline phosphatase, colorimetric phosphate release, initial rates, Michaelis-Menten fit on S. enterica CpdB

[2] = system: Nc1ncnc2c1ncn2[C@@H]1O[C@H](COP(=O)(O)OP(=O)(O)OP(=O)(O)OP(=O)(O)OC[C@H]2O[C@@H](n3cnc4c(N)ncnc43)[C@H](O)[C@@H]2O)[C@@H](O)[C@H]1O; assay: purified protein; conditions: 50 mM Tris-HCl pH 7.5, 2 mM MnCl2, 0.1 mg/mL BSA, 37 °C, excess alkaline phosphatase
Excerpt: as §1

[3] = system: O=c1ccn([C@@H]2O[C@H](CO)[C@@H](OP(=O)(O)O)[C@H]2O)c(=O)[nH]1; assay: purified protein; conditions: 50 mM Tris-HCl pH 7.5, 2 mM MnCl2, 0.1 mg/mL BSA, 37 °C
Excerpt: (§2) colorimetric phosphate release, initial rates, Michaelis-Menten fit on S. enterica CpdB

[4] = system: Nc1ncnc2c1ncn2[C@@H]1O[C@@H]2COP(=O)(O)O[C@H]3[C@@H](O)[C@H](n4cnc5c(N)ncnc54)O[C@@H]3COP(=O)(O)O[C@H]3[C@@H](O)[C@H](n4cnc5c(N)ncnc54)O[C@@H]3COP(=O)(O)O[C@H]3[C@@H](O)[C@H](n4cnc5c(N)ncnc54)O[C@@H]3COP(=O)(O)O[C@H]2[C@H]1O; assay: purified protein; conditions: 50 mM Tris-HCl pH 7.5, 2 mM MnCl2, 0.1 mg/mL BSA, 37 °C
[5] = system: Nc1nc2c(ncn2[C@@H]2O[C@@H]3COP(=O)(O)O[C@H]4[C@@H](O)[C@H](n5cnc6c(N)ncnc65)O[C@@H]4COP(=O)(O)O[C@H]3[C@H]2O)c(=O)[nH]1; assay: purified protein; conditions: 50 mM Tris-HCl pH 7.5, 2 mM MnCl2, 0.1 mg/mL BSA, 37 °C
[6] = system: Nc1nc2c(ncn2[C@@H]2O[C@H](CO)[C@@H](OP(=O)(O)O)[C@H]2O)c(=O)[nH]1; assay: purified protein; conditions: 50 mM Tris-HCl pH 7.5, 2 mM MnCl2, 0.1 mg/mL BSA, 37 °C
Excerpt: as §2

[7] = system: O=[N+]([O-])c1ccc(OP(=O)(O)Oc2ccc([N+](=O)[O-])cc2)cc1; assay: purified protein; conditions: 50 mM Tris-HCl pH 7.5, 2 mM MnCl2, 0.1 mg/mL BSA, 37 °C, excess alkaline phosphatase
Excerpt: as §1

[8] = system: Nc1nc2c(ncn2[C@@H]2O[C@@H]3CO[P@](=O)(O)O[C@H]4[C@@H](O)[C@H](n5cnc6c(=O)[nH]c(N)nc65)O[C@@H]4CO[P@](=O)(O)O[C@H]3[C@H]2O)c(=O)[nH]1; assay: purified protein; conditions: 50 mM Tris-HCl pH 7.5, 2 mM MnCl2, 0.1 mg/mL BSA, 37 °C
[9] = system: [H][C@@]1(O)[C@]2([H])OP(=O)(O)OC[C@@]3([H])O[C@@]([H])(n4cnc5c(N)ncnc54)[C@]([H])(O)[C@]3([H])OP(=O)(O)OC[C@@]2([H])O[C@@]1([H])n1cnc2c(N)ncnc21; assay: purified protein; conditions: 50 mM Tris-HCl pH 7.5, 2 mM MnCl2, 0.1 mg/mL BSA, 37 °C
[10] = system: Nc1ncnc2c1ncn2[C@@H]1O[C@H](CO)[C@H]2OP(=O)(O)O[C@H]21; assay: purified protein; conditions: 50 mM Tris-HCl pH 7.5, 2 mM MnCl2, 0.1 mg/mL BSA, 37 °C, excess alkaline phosphatase
Excerpt: as §1

[11] = system: Nc1ncnc2c1ncn2[C@@H]1O[C@H](COP(=O)(O)OP(=O)(O)O)[C@@H](O)[C@H]1O; assay: purified protein; conditions: 50 mM Tris-HCl pH 7.5, 2 mM MnCl2, 0.1 mg/mL BSA, 37 °C
Excerpt: as §2

[12] = system: Nc1ncnc2c1ncn2[C@@H]1O[C@H](CO)[C@@H](OP(=O)(O)O)[C@H]1O; assay: purified protein; conditions: 50 mM Tris-HCl pH 7.5, 2 mM MnCl2, 0.1 mg/mL BSA, 37 °C
Excerpt: as §2

[13] = system: O=c1ccn([C@@H]2O[C@H](CO)[C@H]3OP(=O)(O)O[C@H]32)c(=O)[nH]1; assay: purified protein; conditions: 50 mM Tris-HCl pH 7.5, 2 mM MnCl2, 0.1 mg/mL BSA, 37 °C, excess alkaline phosphatase
Excerpt: as §1

[14] = system: Nc1ncnc2c1ncn2[C@@H]1O[C@H](COP(=O)(O)O[C@H]2[C@@H](O)[C@H](n3cnc4c(N)ncnc43)O[C@@H]2COP(=O)(O)O)[C@@H](O)[C@H]1O; assay: purified protein; conditions: 50 mM Tris-HCl pH 7.5, 2 mM MnCl2, 0.1 mg/mL BSA, 37 °C
[15] = system: Nc1ncnc2c1ncn2[C@@H]1O[C@@H]2COP(=O)(O)O[C@H]3[C@@H](O)[C@H](n4cnc5c(N)ncnc54)O[C@@H]3COP(=O)(O)O[C@H]3[C@@H](O)[C@H](n4cnc5c(N)ncnc54)O[C@@H]3COP(=O)(O)O[C@H]3[C@@H](O)[C@H](n4cnc5c(N)ncnc54)O[C@@H]3COP(=O)(O)O[C@H]3[C@@H](O)[C@H](n4cnc5c(N)ncnc54)O[C@@H]3COP(=O)(O)O[C@H]3[C@@H](O)[C@H](n4cnc5c(N)ncnc54)O[C@@H]3COP(=O)(O)O[C@H]2[C@H]1O; assay: purified protein; conditions: 50 mM Tris-HCl pH 7.5, 2 mM MnCl2, 0.1 mg/mL BSA, 37 °C
[16] = system: Nc1ccn([C@@H]2O[C@H](CO)[C@H]3OP(=O)(O)O[C@H]32)c(=O)n1; assay: purified protein; conditions: 50 mM Tris-HCl pH 7.5, 2 mM MnCl2, 0.1 mg/mL BSA, 37 °C, excess alkaline phosphatase
Excerpt: as §1

[17] = system: Nc1ncnc2c1ncn2[C@@H]1O[C@H](COP(=O)(O)OP(=O)(O)OP(=O)(O)OC[C@H]2O[C@@H](n3cnc4c(N)ncnc43)[C@H](O)[C@@H]2O)[C@@H](O)[C@H]1O; assay: purified protein; conditions: 50 mM Tris-HCl pH 7.5, 2 mM MnCl2, 0.1 mg/mL BSA, 37 °C, excess alkaline phosphatase
Excerpt: as §1

SntA = system: T1, SntA; assay: HPLC at […] nm of […]'-AMP formed, initial rates, Michaelis-Menten fit; format: biochemical, Streptococcus suis; conditions: 50 mM Tris-HCl pH 7.5, 2 mM MnCl2, 0.1 mg/mL BSA, 37 °C; read-out: K m ^1 /
T1 construct: cell wall-attached protein of 813 residues; preparation from earlier work [10]

Compound: S. enterica CpdB (Salmonella enterica subsp. enterica serovar Typhimurium str. LT2)
- Km [1]: 7.52 ± 1.46 µM
- kcat [1]: 120 ± 4.74 s⁻¹
- kcat/Km [1]: 1.63e+07 M⁻¹ s⁻¹
- Km [2]: 49.21 ± 12.46 µM
- kcat [2]: 2.64 ± 0.24 s⁻¹
- kcat/Km [2]: 55000 M⁻¹ s⁻¹
- Km [3]: 4.54 ± 0.53 µM
- kcat [3]: 155 ± 13.3 s⁻¹
- kcat/Km [3]: 3.42e+07 M⁻¹ s⁻¹
- Km [4]: 18.44 ± 4.95 µM
- kcat [4]: 0.042 ± 0.001 s⁻¹
- kcat/Km [4]: 2370 M⁻¹ s⁻¹
- Km [5]: 2.13 ± 0.32 µM
- kcat [5]: 0.3 ± 0.03 s⁻¹
- kcat/Km [5]: 197000 M⁻¹ s⁻¹
- Km [6]: 4.66 ± 1.34 µM
- kcat [6]: 219 ± 48.7 s⁻¹
- kcat/Km [6]: 5.23e+07 M⁻¹ s⁻¹
- Km [7]: 33.74 ± 4.77 µM
- kcat [7]: 250 ± 9.82 s⁻¹
- kcat/Km [7]: 7.53e+06 M⁻¹ s⁻¹
- Km [8]: 4.12 ± 0.98 µM
- kcat [8]: 0.09 ± 0.01 s⁻¹
- kcat/Km [8]: 22400 M⁻¹ s⁻¹
- Km [9]: 8.89 ± 2.31 µM
- kcat [9]: 0.31 ± 0.06 s⁻¹
- kcat/Km [9]: 35500 M⁻¹ s⁻¹
- Km [10]: 14.41 ± 3.68 µM
- kcat [10]: 209 ± 16.9 s⁻¹
- kcat/Km [10]: 1.53e+07 M⁻¹ s⁻¹
- Km [11]: 28.09 ± 1.82 µM
- kcat [11]: 2.83 ± 0.19 s⁻¹
- kcat/Km [11]: 101000 M⁻¹ s⁻¹
- Km [12]: 6.53 ± 1.16 µM
- kcat [12]: 172 ± 41.3 s⁻¹
- kcat/Km [12]: 2.76e+07 M⁻¹ s⁻¹
- Km [13]: 22.65 ± 2.56 µM
- kcat [13]: 324 ± 21.8 s⁻¹
- kcat/Km [13]: 1.44e+07 M⁻¹ s⁻¹
- Km [14]: 0.22 ± 0.12 µM
- kcat [14]: 2.85 ± 1.04 s⁻¹
- kcat/Km [14]: 1.39e+07 M⁻¹ s⁻¹
- Km [15]: 24.24 ± 7.60 µM
- kcat [15]: 0.006 ± 0.001 s⁻¹
- kcat/Km [15]: 238 M⁻¹ s⁻¹
- Km [16]: 4.52 ± 0.69 µM
- kcat [16]: 146 ± 9.39 s⁻¹
- kcat/Km [16]: 3.32e+07 M⁻¹ s⁻¹
- Km [17]: 69.09 ± 19.31 µM
- kcat [17]: 2.1 ± 0.17 s⁻¹
- kcat/Km [17]: 31600 M⁻¹ s⁻¹

Compound: Nc1ncnc2c1ncn2[C@@H]1O[C@@H]2COP(=O)(O)O[C@H]3[C@@H](O)[C@H](n4cnc5c(N)ncnc54)O[C@@H]3COP(=O)(O)O[C@H]3[C@@H](O)[C@H](n4cnc5c(N)ncnc54)O[C@@H]3COP(=O)(O)O[C@H]3[C@@H](O)[C@H](n4cnc5c(N)ncnc54)O[C@@H]3COP(=O)(O)O[C@H]2[C@H]1O [c-tetra-AMP]
- Km (SntA): 262 ± 62.1 µM

Compound: Nc1ncnc2c1ncn2[C@@H]1O[C@@H]2COP(=O)(O)O[C@H]3[C@@H](O)[C@H](n4cnc5c(N)ncnc54)O[C@@H]3COP(=O)(O)O[C@H]3[C@@H](O)[C@H](n4cnc5c(N)ncnc54)O[C@@H]3COP(=O)(O)O[C@H]3[C@@H](O)[C@H](n4cnc5c(N)ncnc54)O[C@@H]3COP(=O)(O)O[C@H]3[C@@H](O)[C@H](n4cnc5c(N)ncnc54)O[C@@H]3COP(=O)(O)O[C@H]3[C@@H](O)[C@H](n4cnc5c(N)ncnc54)O[C@@H]3COP(=O)(O)O[C@H]2[C@H]1O [c-hexa-AMP]
- Km (SntA): 2.63 ± 0.88 µM

From PMC9958556, “Genomic Distribution of Pro-Virulent cpdB-like Genes in Eubacteria and Comparison of the Enzyme Specificity of CpdB-like Proteins from Salmonella enterica, Escherichia coli and Streptococcus suis” (International Journal of Molecular Sciences, 2023)
